According to the supplement of paper PMC10126150:
± gives the standard deviation of the averaged measurements.

test system: ATP; experiment: switch fluorescence ratio, 500 uM ATP over buffer (Cy3 cluster intensity, sum of 5 cycles each) (fold (ratio)); higher = stronger signal-on switching upon ATP binding; sequences stand for … in TCGTCGGCAGCGTCAGATGTGTATAAGAGACAGTTTTTTTTTTTTTTTTTTTTTTTTT…TC; settings: aptamer strand: ATP DNA aptamer (quencher-CACCTGGGGGAGTATTGCGGAGGAAGG + anchor), 100 nM annealed; ATP concentration: 500 uM
Summary of the method: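 Clusters carrying Cy3-labelled switching strands on a modified Illumina MiSeq flow-cell were annealed to 100 nM quencher-labelled ATP aptamer and imaged in selection buffer. They were imaged again after 15 min with 500 uM ATP at 22 °C, over five buffer/ATP cycles with NaOH stripping and re-annealing in between. For each cluster, the fluorescence ratio is the summed Cy3 intensity of the target cycles divided by that of the buffer cycles, averaged per switch-domain sequence. Clusters outside 100-1000 RFU were left out.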
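Note: ATP exposure 15 min at 22 °C before imaging.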

| Sequence | switch fluorescence ratio |
| --- | --- |
| CCTGGGGTAT | 1.09 ± 0.05 |
| CCTGGGGTCG | 1.05 ± 0.05 |
| CCTGGGTCGA | 1.022 ± 0.0044 |
| CCTGGGTGAA | 1.2 ± 0.03 |
| CCTGGGTTAG | 0.998 ± 0.017 |
| CCTGGTCCTA | 0.9879 ± 0.0074 |
| CCTGGTGACG | 1.035 ± 0.002 |
| CCTGGTTAGG | 0.983 ± 0.013 |
| CCTGTACCAC | 1.07 ± 0.019 |
| CCTGTGGGGG | 0.993 ± 0.028 |
| CCTGTGGTGC | 1.342 ± 0.0072 |
| CCTGTGTCCG | 1.12 ± 0.052 |
| CCTGTTAAAT | 1.05 ± 0.022 |
| CCTGTTGCGA | 2.66 ± 0.52 |
| CCTGTTGGTT | 0.955 ± 0.033 |
| CCTGTTTCAG | 1.05 ± 0.018 |
| CCTTAACGGC | 1.06 ± 0.015 |
| CCTTAGGGGG | 1.24 ± 0.33 |
| CCTTATTGTC | 0.997 ± 0.024 |
| CCTTATTTTC | 0.9984 ± 0.0059 |
| CCTTCTAGTT | 1.035 ± 0.0018 |
| CCTTGACGGG | 1.18 ± 0.17 |
| CCTTGAGGGC | 1.34 ± 0.38 |
| CCTTGAGGGG | 0.9925 ± 0.0036 |
| CCTTGCGGGA | 1.06 ± 0.011 |

| Sequence | switch fluorescence ratio |
| --- | --- |
| CCTTGTAGGG | 1.02 ± 0.03 |
| CCTTGTTTAA | 1.01 ± 0.086 |
| CCTTTAGGGT | 0.9997 ± 0.0014 |
| CCTTTATGGT | 0.983 ± 0.011 |
| CCTTTGCCGC | 1.58 ± 0.54 |
| CCTTTGCTGT | 1.073 ± 0.0024 |
| CCTTTGGGCT | 0.989 ± 0.025 |
| CGAAAAATGG | 1.04 ± 0.046 |
| CGAAAACTTT | 1.07 ± 0.064 |
| CGAAAAGAAT | 1.02 ± 0.029 |
| CGAAAATGGG | 0.9772 ± 0.0058 |
| CGAAAATTAA | 1 ± 0.047 |
| CGAAAGGGAC | 1.033 ± 0.0092 |
| CGAAAGTATA | 1.08 ± 0.075 |
| CGAAATACGG | 2.83 ± 0.18 |
| CGAAATGCTG | 1.09 ± 0.016 |
| CGAAATGTAA | 0.992 ± 0.024 |
| CGAACAGCGA | 1.27 ± 0.015 |
| CGAACAGGTT | 1.04 ± 0.02 |
| CGAACCTTCG | 2.35 ± 0.092 |
| CGAACTGCAG | 1.034 ± 0.0016 |
| CGAAGAGGGG | 0.995 ± 0.016 |
| CGAAGATGGG | 0.981 ± 0.03 |
| CGAAGCGCCC | 4.36 ± 3 |
| CGAAGGCGTA | 1.027 ± 0.0062 |

| Sequence | switch fluorescence ratio |
| --- | --- |
| CGAAGGCTCG | 0.99 ± 0.04 |
| CGAAGGGCTA | 1.15 ± 0.19 |
| CGAAGTTATG | 1.06 ± 0.03 |
| CGAAGTTTGG | 1.02 ± 0.02 |
| CGAATAGGCG | 0.976 ± 0.048 |
| CGAATCGGCT | 1.05 ± 0.054 |
| CGAATGGGGA | 0.992 ± 0.077 |
| CGAATGTGGG | 1.0147 ± 0.00075 |
| CGAATTCCAC | 1.024 ± 0.0099 |
| CGAATTGGTA | 0.982 ± 0.011 |
| CGAATTTGCC | 1.01 ± 0.065 |
| CGAATTTGTC | 1.02 ± 0.035 |
| CGACCTTTTC | 1.4 ± 0.34 |
| CGACGAACTT | 1.236 ± 0.0059 |
| CGACTAAGAG | 1.02 ± 0.025 |
| CGACTATAGG | 1 ± 0.023 |
| CGACTTGAAA | 1.04 ± 0.041 |
| CGACTTGCGT | 1.01 ± 0.012 |
| CGACTTTCAA | 1.05 ± 0.032 |
| CGAGAAATGG | 1.07 ± 0.055 |
| CGAGAAGAGT | 1.01 ± 0.053 |
| CGAGAGAGTG | 0.96 ± 0.02 |
| CGAGAGGGGG | 0.9723 ± 0.0065 |
| CGAGCAGAGT | 1.13 ± 0.021 |
| CGAGCATTTT | 1.14 ± 0.017 |

| Sequence | switch fluorescence ratio |
| --- | --- |
| CGAGCGACGT | 0.9863 ± 0.007 |
| CGAGCTGTTT | 1.02 ± 0.0099 |
| CGAGCTTATA | 1.38 ± 0.032 |
| CGAGGAATTT | 1.04 ± 0.043 |
| CGAGGATAGG | 0.999 ± 0.035 |
| CGAGGCGCG | 0.9537 ± 0.008 |
| CGAGGGAGGG | 0.999 ± 0.015 |
| CGAGGGCCGG | 0.9974 ± 0.0081 |
| CGAGGGGCTT | 0.997 ± 0.035 |
| CGAGGGGGCC | 0.97 ± 0.052 |
| CGAGGGGTTA | 1.01 ± 0.022 |
| CGAGGGGTTT | 0.984 ± 0.059 |
| CGAGGGTGTT | 1.05 ± 0.077 |
| CGAGGTGTAG | 0.98 ± 0.022 |
| CGAGGTTAAT | 1.051 ± 0.0011 |
| CGAGGTTAGG | 1.06 ± 0.062 |
| CGAGGTTATT | 1 ± 0.037 |
| CGAGGTTGGG | 1.002 ± 0.0028 |
| CGAGTAGAAT | 1.06 ± 0.065 |
| CGAGTCCTGT | 1 ± 0.02 |
| CGAGTCGGGA | 0.999 ± 0.021 |
| CGAGTGCCCA | 0.996 ± 0.033 |
| CGAGTTAAAA | 1.002 ± 0.0069 |
| CGAGTTCGGC | 0.976 ± 0.06 |
| CGAGTTGCTG | 0.988 ± 0.11 |

| Sequence | switch fluorescence ratio |
| --- | --- |
| CGAGTTGGGG | 1.01 ± 0.031 |
| CGAGTTTCGG | 1.011 ± 0.0073 |
| CGAGTTTTTA | 0.994 ± 0.027 |
| CGATAACATG | 0.9984 ± 0.0051 |
| CGATAACTGG | 1.05 ± 0.052 |
| CGATAATCGT | 1.002 ± 0.0098 |
| CGATAGGCAA | 1.66 ± 0.9 |
| CGATAGGGGT | 1.05 ± 0.074 |
| CGATAGGTAC | 1.22 ± 0.027 |
| CGATATAGTC | 0.993 ± 0.049 |
| CGATATTTGG | 1 ± 0.02 |
| CGATCGGTTG | 0.9499 ± 0.0033 |
| CGATCTTTAC | 1.29 ± 0.017 |
| CGATGGCTGG | 0.976 ± 0.027 |
| CGATGGGGTG | 0.998 ± 0.025 |
| CGATGGTCGT | 0.975 ± 0.028 |
| CGATGGTTTT | 1.01 ± 0.044 |
| CGATGTAGTT | 0.995 ± 0.014 |
| CGATGTATAA | 1.01 ± 0.025 |
| CGATGTCAGC | 1.073 ± 0.0036 |
| CGATGTTTTG | 0.969 ± 0.031 |
| CGATTATAGG | 1.003 ± 0.0096 |
| CGATTCGAGG | 1.03 ± 0.011 |
| CGATTGGGAC | 1.01 ± 0.02 |
| CGATTGGGTA | 0.968 ± 0.038 |

| Sequence | switch fluorescence ratio |
| --- | --- |
| CGATTTAAGG | 0.9947 ± 0.0063 |
| CGATTTGACT | 1.02 ± 0.037 |
| CGATTTTTTT | 1.02 ± 0.05 |
| CGCAAAAGCA | 1.2 ± 0.027 |
| CGCAATGGGG | 2.98 ± 0.53 |
| CGCAATTCGA | 3.57 ± 1.3 |
| CGCACCTGAG | 1.23 ± 0.044 |
| CGCACCTGTA | 1.04 ± 0.037 |
| CGCAGAAACG | 1 ± 0.036 |
| CGCAGAGCGA | 1.02 ± 0.0082 |
| CGCAGCGGTT | 1.49 ± 0.041 |
| CGCATAGGAC | 3.16 ± 0.28 |
| CGCATAGGGT | 1.13 ± 0.012 |
| CGCATAGTTG | 1.06 ± 0.024 |
| CGCATGAGGC | 1.18 ± 0.045 |
| CGCATGCTGG | 1.02 ± 0.024 |
| CGCATGGGCC | 1.4 ± 0.019 |
| CGCATGTCGA | 1.03 ± 0.025 |
| CGCATGTTTC | 1.2 ± 0.15 |
| CGCATTGGT | 1.31 ± 0.016 |
| CGCATTTAAG | 1.18 ± 0.046 |
| CGCATTTTGT | 1.06 ± 0.0043 |
| CGCCAGATTT | 0.9963 ± 0.0072 |
| CGCCATAGTG | 1.01 ± 0.039 |
| CGCCATTACG | 1.65 ± 0.024 |

| Sequence | switch fluorescence ratio |
| --- | --- |
| CGCCCAAAGG | 1.13 ± 0.11 |
| CGCCCCGAGA | 1.02 ± 0.015 |
| CGCCCCGCTG | 1.13 ± 0.071 |
| CGCCCCTGAA | 0.997 ± 0.017 |
| CGCCCGCACG | 1.93 ± 0.5 |
| CGCCGATTAA | 1.03 ± 0.062 |
| CGCCGCGTCA | 1 ± 0.038 |
| CGCCGGGAGG | 0.989 ± 0.073 |
| CGCCTAAGTT | 1 ± 0.036 |
| CGCCTAGTCG | 1.02 ± 0.074 |
| CGCCTCAGGT | 1.46 ± 0.14 |
| CGCCTCGGGC | 1.02 ± 0.016 |
| CGCCTGGGCA | 1.02 ± 0.043 |
| CGCGAAAATG | 1.02 ± 0.022 |
| CGCGACGGGG | 1.03 ± 0.029 |
| CGCGACTGGT | 0.994 ± 0.014 |
| CGCGACTTAA | 1.044 ± 0.0047 |
| CGCGACTTTC | 1.09 ± 0.021 |
| CGCGAGAGGA | 1.01 ± 0.016 |
| CGCGAGCGTT | 0.995 ± 0.049 |
| CGCGCCGTTG | 1 ± 0.011 |
| CGCGCCTGTG | 1.17 ± 0.23 |
| CGCGCGGGCT | 0.998 ± 0.051 |
| CGCGCGTCGG | 0.978 ± 0.021 |
| CGCGCTGCTG | 1.03 ± 0.029 |

| Sequence | switch fluorescence ratio |
| --- | --- |
| CGCGGAGCTT | 1.03 ± 0.033 |
| CGCGGGAAGG | 1.02 ± 0.036 |
| CGCGGGGAAG | 0.98 ± 0.053 |
| CGCGGGGGAT | 1.03 ± 0.067 |
| CGCGGGGGCG | 0.991 ± 0.025 |
| CGCGGGGGTA | 0.995 ± 0.03 |
| CGCGGTGCGG | 1.005 ± 0.0076 |
| CGCGGTGTGG | 1.03 ± 0.022 |
| CGCGGTTGCG | 0.9668 ± 0.0054 |
| CGCGTAATAT | 2.07 ± 0.069 |
| CGCGTACGTT | 1.05 ± 0.018 |
| CGCGTAGGGC | 1.04 ± 0.016 |
| CGCGTGCAGG | 1.02 ± 0.033 |
| CGCGTGGTA | 1.07 ± 0.013 |
| CGCGTTCATT | 0.972 ± 0.038 |
| CGCGTTCGCT | 1.025 ± 0.0083 |
| CGCGTTTCCC | 1.27 ± 0.038 |
| CGCTAACTTG | 1.01 ± 0.047 |
| CGCTACGTGT | 1.02 ± 0.038 |
| CGCTACTTAT | 1.12 ± 0.029 |
| CGCTAGATTT | 0.996 ± 0.031 |
| CGCTATTGGT | 1.002 ± 0.0043 |
| CGCTATTGTG | 1.01 ± 0.021 |
| CGCTCCCATT | 1.46 ± 0.024 |
| CGCTCGCCTG | 1.03 ± 0.016 |
